Measured values: the Immune Epitope Database (IEDB)

Experiments:
HLA-A*23:01 = experiment: IEDB peptide-MHC binding, purified MHC/competitive/radioactivity; filed as Kd, often an IC50 or EC50 that approximates it; ≥ and ≤ were set here for values at or beyond the usual limits of such assays
HLA-B*53:01 = experiment: as above
HLA-B*51:01 = experiment: as above
HLA-B*35:01 = experiment: as above
HLA-A*26:01 [1] = experiment: as above
HLA-A*01:01 = experiment: as above
HLA-A*24:02 = experiment: as above
HLA-A*30:02 = experiment: as above
HLA-A*29:02 = experiment: as above
HLA-B*15:01 = experiment: IEDB peptide-MHC binding, purified MHC/competitive/fluorescence; filed as Kd, often an IC50 or EC50 that approximates it; ≥ and ≤ were set here for values at or beyond the usual limits of such assays; settings: source organism: Escherichia coli 536
HLA-A*33:01 = experiment: IEDB peptide-MHC binding, purified MHC/competitive/radioactivity; filed as Kd, often an IC50 or EC50 that approximates it; ≥ and ≤ were set here for values at or beyond the usual limits of such assays; settings: source organism: SARS coronavirus Tor2
HLA-A*03:01 = experiment: as above; settings: source organism: SARS coronavirus Tor2
HLA-A*68:01 = experiment: as above; settings: source organism: SARS coronavirus Tor2
HLA-A*11:01 = experiment: as above; settings: source organism: SARS coronavirus Tor2
HLA-A*31:01 = experiment: as above; settings: source organism: SARS coronavirus Tor2
HLA-A*26:01 [2] = experiment: IEDB peptide-MHC binding, purified MHC/direct/fluorescence; filed as Kd, often an IC50 or EC50 that approximates it; ≥ and ≤ were set here for values at or beyond the usual limits of such assays; settings: source organism: West Nile virus
[3] = source organism: Dengue virus 2 Jamaica/1409/1983
[4] = source organism: Dengue virus 3 Martinique/1243/1999
[5] = source organism: SARS coronavirus Tor2
[6] = source organism: Dengue virus 4 Philippines/H241/1956
[7] = source organism: Mammarenavirus guanaritoense
[8] = source organism: Mammarenavirus lassaense
[9] = source organism: Dengue virus 1 Brazil/97-11/1997
[10] = source organism: Mammarenavirus brazilense
[11] = source organism: Dengue virus 1 Singapore/S275/1990
[12] = source organism: Dengue virus 3 Singapore/8120/1995

Sequence	Kd (HLA-A*26:01 [1]; [5])	Kd (HLA-A*23:01; [5])	Kd (HLA-A*01:01; [5])	Kd (HLA-A*24:02; [5])	Kd (HLA-A*30:02; [5])	Kd (HLA-A*29:02; [5])	also measured
PFGDSYIII							Kd (HLA-A*23:01; [3]): 3960 nM
LMKITAEWLW							Kd (HLA-B*53:01; [3]): 1410 nM
LPETMETLLL							Kd (HLA-B*51:01; [4]): 1170 nM; Kd (HLA-B*35:01; [4]): 1210 nM; Kd (HLA-B*53:01; [4]): 24.3 nM
TCDWTNAGDY	≥ 25000 nM	≥ 70000 nM	133 nM	≥ 70300 nM	672 nM	2020 nM	
CYSQVNPTTL							Kd (HLA-A*23:01; [6]): 1330 nM; Kd (HLA-A*24:02; [6]): 326 nM
FSPRLCRPF							Kd (HLA-B*15:01): 325 nM
SYEHQTPFEI	10400 nM	945 nM	3680 nM	1240 nM	7060 nM	7160 nM	
FLDGVNLVA							Kd (HLA-A*26:01 [1]; [7]): ≥ 77900 nM; Kd (HLA-A*23:01; [7]): 8810 nM; Kd (HLA-A*01:01; [7]): 9.76 nM; Kd (HLA-A*24:02; [7]): ≥ 77500 nM; Kd (HLA-A*30:02; [7]): 17700 nM; Kd (HLA-A*29:02; [7]): 5430 nM
DSSQGSEYDY	7270 nM	≥ 70000 nM	151 nM	≥ 70300 nM	151 nM	1350 nM	
QYNLSHSYAV							Kd (HLA-A*26:01 [1]; [8]): ≥ 69700 nM; Kd (HLA-A*23:01; [8]): 346 nM; Kd (HLA-A*01:01; [8]): ≥ 70400 nM; Kd (HLA-A*24:02; [8]): 1950 nM; Kd (HLA-A*30:02; [8]): 3330 nM; Kd (HLA-A*29:02; [8]): 1300 nM
AYMLFTKFFY	83.5 nM	0.115 nM	339 nM	0.241 nM		0.00115 nM	
CKSKNPLLY	≥ 81500 nM	≥ 67600 nM	≥ 87700 nM	≥ 77600 nM	199 nM	163 nM	
LYYPSARIVY	7360 nM	1910 nM	≥ 37800 nM	2020 nM	71.8 nM	14.6 nM	
MYLKLRSETL	7590 nM	44.5 nM	7220 nM	164 nM	18200 nM	17700 nM	
AYATAQEAY	≥ 43100 nM	≥ 77800 nM	≥ 98000 nM	≥ 53900 nM	50.6 nM	642 nM	
LPLPWAAGAD							Kd (HLA-B*51:01; [6]): ≥ 22900 nM; Kd (HLA-B*35:01; [6]): 4140 nM
FKPGTSGSPI							Kd (HLA-B*51:01; [9]): 5750 nM
NYPYLFEEHL							Kd (HLA-A*23:01; [10]): 824 nM; Kd (HLA-A*24:02; [10]): 979 nM; Kd (HLA-A*29:02; [10]): ≥ 71400 nM
LPVLLGSLGC							Kd (HLA-B*51:01; [11]): ≥ 20100 nM; Kd (HLA-B*35:01; [11]): 2030 nM; Kd (HLA-B*53:01; [11]): 199 nM
ATVAYFNMVY	979 nM	≥ 30900 nM	893 nM	13000 nM	1210 nM	0.00633 nM	Kd (HLA-A*33:01): ≥ 70000 nM; Kd (HLA-A*03:01): 269 nM; Kd (HLA-A*68:01): 549 nM; Kd (HLA-A*11:01): 74.2 nM; Kd (HLA-A*31:01): 2330 nM
HTNEDDSNF							Kd (HLA-A*26:01 [2]): 1900 nM
LWMADVPLQW							Kd (HLA-A*23:01; [12]): 39.7 nM; Kd (HLA-A*24:02; [12]): 24.3 nM
FMMSRRRLL	≥ 77900 nM	496 nM	≥ 78100 nM	1410 nM	6730 nM	2620 nM	
EVEDYGFGVF							Kd (HLA-A*26:01 [1]; [3]): 132 nM; Kd (HLA-A*23:01; [3]): 1000 nM
SYKVASEGF							Kd (HLA-A*23:01; [9]): 626 nM; Kd (HLA-A*24:02; [9]): 209 nM
